Values quoted from earlier work, collected in article PMC10522771.

Columns and labels:
CBP TAZ1 (Homo sapiens) = CBP TAZ1 (Homo sapiens) (UniProt Q92793)
CBP TAZ2 (Homo sapiens) = CBP TAZ2 (Homo sapiens) (UniProt Q92793)
CBP TAZ2 (Homo sapiens), sequence (Q92793 1764-1855): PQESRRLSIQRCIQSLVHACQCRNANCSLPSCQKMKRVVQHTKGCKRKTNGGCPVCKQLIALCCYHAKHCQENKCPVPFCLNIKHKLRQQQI

MITF N-terminal TAD, sequence (O75030 224-295): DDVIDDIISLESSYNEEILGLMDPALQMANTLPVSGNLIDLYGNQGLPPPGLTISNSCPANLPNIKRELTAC
CBP TAZ1 (Homo sapiens), sequence (Q92793 340-439): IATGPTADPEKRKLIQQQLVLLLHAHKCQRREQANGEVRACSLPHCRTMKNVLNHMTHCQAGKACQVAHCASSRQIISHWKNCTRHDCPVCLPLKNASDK

Kd (CBP TAZ1 (Homo sapiens)): 6.7 µM
Kd (CBP TAZ2 (Homo sapiens)): 1.2 µM
Substance: MITF N-terminal TAD (from UniProt O75030)
